± gives the standard deviation.
Assay: protein stability index of a GFP-peptide fusion (GPS, HEK-293T) (PSI 1-6); higher = more stable
[1] = treatment: DMSO, c terminus: a fixed tail appended
[2] = treatment: MLN4924 1 uM, 8 h, c terminus: a fixed tail appended
[3] = treatment: DMSO, c terminus: native
[4] = treatment: MLN4924 1 uM, 8 h, c terminus: native
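Further: 24-mer peptide tiles fused after GFP, lentivirally expressed, FACS-sorted into six equal bins by GFP/DsRed ratio, decoded by Illumina sequencing, PSI is the read-weighted mean bin number.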

| Sequence | protein stability index [1] | protein stability index [2] | protein stability index [3] | protein stability index [4] |
| --- | --- | --- | --- | --- |
| TEALILQLFSQIGPCKNCKMIMDT [TIA1] | 2.75 ± 0.37 | 2.53 ± 0.41 | – | – |
| TSVEEESFGPQPISRLEQCGINAN [RAD51] | 4.63 ± 0.39 | 4.63 ± 0.18 | – | – |
| KLPRKVLQHVSEPQAHQESTRGAA [SPACA9] | 4.59 ± 0.13 | 4.76 ± 0.17 | – | – |
| GFYFEVCGMMVESVNAKTLMSRI [PCDHGA10] | – | – | 2.81 ± 0.26 | 2.41 ± 1 |
| LLSDGSNTLSVSYKKGRMMKDISN [SLC6A17] | 3.03 ± 0.27 | 3.35 ± 0.31 | – | – |
| NDYIVPRHCPELAEMSRVSIRILD [HNF4A] | 3.08 ± 0.19 | 3.29 ± 0.24 | – | – |
| NRELWKEFSSVGTEMIITKAGRRM [TBX6] | 2.88 ± 0.27 | 3.21 ± 0.4 | – | – |
| QLQPTFTPMRVALAGTFHYYSCER [NSDHL] | 2.18 ± 0.24 | 2.26 ± 0.044 | – | – |
| EDMLLPLAWRIVNDTYRTDLCLLY [CCNC] | 2.76 ± 0.57 | 2.59 ± 0.38 | – | – |
| WEFKLSDPDEVARRWGKRKNKPKM [ETS1] | 3.65 ± 0.27 | 3.67 ± 0.067 | – | – |
| GRPIPGTSTRYEQPKCDNTARAHP [SMOC2] | 4.76 ± 0.4 | 4.78 ± 0.18 | – | – |
| PQTRSGPECGLAKKPPEESTCFER [ADAMTSL2] | 5.05 ± 0.22 | 5.08 ± 0.33 | – | – |
| KERILLVTDKTLLICKYDFIMLSC [TPRG1] | 3.06 ± 0.42 | 2.61 ± 0.31 | – | – |
| SSKFYDLFLMDLSEGELGGPSEPG [RHOBTB2] | 3.19 ± 0.2 | 3.25 ± 0.34 | – | – |
| VCLMGHERRQTLNLISLLALRVLA [TENT5C] | 2.72 ± 0.56 | 2.5 ± 0.37 | – | – |
| DVHNRIVIRGLNTIPLFVQLLYSP [CTNNB1] | 2.58 ± 0.58 | 2.73 ± 0.5 | – | – |
| RAKCRNMEHALREKAKAFWAMRRS [TRIM35] | 2.09 ± 0.36 | 2.3 ± 0.34 | – | – |
| ATVVMMTKLEERSRVKCDQYWPSR [PTPRD] | 2.42 ± 0.32 | 2.17 ± 0.38 | – | – |
| HNTTEAPGPHSAKQDSYEQGDSSQ [ZC2HC1C] | 5.45 ± 0.29 | 5.46 ± 0.32 | – | – |
| LPDNFTLKEDGMETVPWFPKKISD [TPH1] | 4.4 ± 0.19 | 4.3 ± 0.12 | – | – |
| DLRHLRAVPTDEARAFAEKNGLSF [RAB11A] | 3.54 ± 0.2 | 3.52 ± 0.22 | – | – |
| YVTTNVSLIPPRSEQLVNFTGKAE [TMEM106C] | 2.49 ± 0.57 | 2.8 ± 0.68 | – | – |
| GGVCCTVTLNFNVPGEFKQDVTVV [GFOD1] | 2.94 ± 0.25 | 2.99 ± 0.16 | – | – |

| Sequence | protein stability index [1] | protein stability index [2] | protein stability index [3] | protein stability index [4] |
| --- | --- | --- | --- | --- |
| SPDKDSIMNIEPAILVMHHSMKPH [INTS3] | 3.32 ± 0.3 | 3.5 ± 0.2 | – | – |
| EKLCIYTDNSIKPQELLEWELVVL [CCND2] | 2.57 ± 0.58 | 2.62 ± 0.6 | – | – |
| IDFSPYLEPLGAPQAPAPATATDT [CEBPB] | 4.42 ± 0.31 | 4.35 ± 0.37 | – | – |
| ASSSPVTLRQKTVDWRRVSRLQED [SLA] | 3.9 ± 0.36 | 3.77 ± 0.32 | – | – |
| KNHEEEMKEFSNQVVGQVNVEMDA [KRT13] | 5.54 ± 0.079 | 5.44 ± 0.31 | – | – |
| MNGHQNGLDSPPLYPSAPILGGSG [ESRRG] | 3.91 ± 0.25 | 3.93 ± 0.3 | – | – |
| MHDAFEPVPILEKLPLQIDCLAAW [VPS39] | 2.56 ± 0.34 | 2.56 ± 0.27 | – | – |
| QAGAARLEEELRQLKEEMARHLRE [PRPH] | 4.15 ± 0.37 | 4.63 ± 0.3 | – | – |
| IVSILPYFITLGTDLAQQQGGGNG [KCNA4] | 2.92 ± 0.36 | 2.54 ± 0.23 | – | – |
| PANCPACREPSPKMDFKTNILLKN [TRIM43] | 3.38 ± 0.25 | 3.52 ± 0.21 | – | – |
| SQSSASQPRLSYAEMAEDYPRYPD [CLCN6] | 4.83 ± 0.14 | 4.86 ± 0.13 | – | – |
| SVDDIESETGSTGALETRSLKDHK [C2CD2L] | 5.52 ± 0.3 | 5.43 ± 0.27 | – | – |
| MGVGKASASDGSSFVVARYFPAGN [GLIPR2] | 3.13 ± 0.26 | 2.96 ± 0.26 | – | – |
| MQPFNYVTLQCLAARALDKNKIPY [FEM1A] | 3.25 ± 0.38 | 2.97 ± 0.31 | – | – |
| GNNEDVSFSRPADLDLIQSTPFKP [MFF] | 4.36 ± 0.059 | 5.06 ± 0.56 | – | – |
| QAPISAPEYTYGISNIDTTIEGTS [MFF] | 4.67 ± 0.42 | 4.55 ± 0.21 | – | – |
| SKPSIQPKPLLLPAAPKTQTISSI [ATF6] | 3.88 ± 0.32 | 3.82 ± 0.31 | – | – |
| DPLSDSDSMTSQAKPEALSSPKFR [ELOA2] | 5.2 ± 0.23 | 5.27 ± 0.17 | – | – |
| LDLFGVSMVVPLLSLHVKSLGASP [MFSD9] | 2.81 ± 0.62 | 3.02 ± 0.17 | – | – |
| FEFLYNALEFWRQEELTRINQSFT [IQUB] | 2.13 ± 0.54 | 2.45 ± 0.74 | – | – |
| NLAGFILGCQGAQFVSSVPRCDLV [FAM189A2] | 2.66 ± 0.59 | 2.58 ± 0.57 | – | – |
| QSSFNSLQRVPSYDSFDSEDYPAA [ETS1] | 4.92 ± 0.28 | 4.93 ± 0.21 | – | – |
| CWSRDGHKLVSASTDNIVSQWDVL [RBBP5] | 2.81 ± 0.12 | 2.87 ± 0.18 | – | – |

| Sequence | protein stability index [1] | protein stability index [2] | protein stability index [3] | protein stability index [4] |
| --- | --- | --- | --- | --- |
| RFTAESYTVLGDTLIDGGEHYWEV [FSD1] | 2.23 ± 0.3 | 2.5 ± 0.43 | – | – |
| PAQLSCLPYLEHVGHNHTYNMAPS [NFE2L1] | 2.91 ± 0.25 | 2.96 ± 0.28 | – | – |
| QRLLNTPRRKKLKSTSKYIYQTLF [GMCL1] | 2.08 ± 0.73 | 1.75 ± 0.46 | – | – |
| AKMAGIGIREASSGGGGSSSNFHI [KRT15] | 3.16 ± 0.4 | 3.14 ± 0.27 | – | – |
| AQNNCPAIMNALIEAGAHMDATNA [FEM1A] | 4.46 ± 0.23 | 4.49 ± 0.079 | – | – |
| WDPSVQSCKEGLSPRGPAPGEEKF [ZNF263] | 5.43 ± 0.1 | 5.46 ± 0.092 | – | – |
| NQGFLKVERYHNLCQKQVKAQLPR [FBXO28] | 2.76 ± 0.47 | 2.64 ± 0.45 | – | – |
| QKKIESYLHNHFIGEGMTKYDYLM [TENT5D] | 2.13 ± 0.45 | 2.18 ± 0.27 | – | – |
| ELHQVAERVEALGQFVMKTRRTLK [GNB5] | 2.87 ± 0.12 | 3.1 ± 0.3 | – | – |
| AKRLWKVCVEHHTFFRLLLPEAPP [EPB41L3] | 2.48 ± 0.88 | 2.42 ± 0.76 | – | – |
| VTMSSLFKHILRTEGAFGLYRGLA [SLC25A25] | 2.5 ± 0.69 | 2.65 ± 0.51 | – | – |
| NKKHIHSRSTLECAYRTHLVAGIG [SMG5] | 2.37 ± 0.29 | 2.39 ± 0.19 | – | – |
| AEEYDEKTSELLVRKWRVKSALGA [DPCD] | 3.34 ± 0.36 | 4.04 ± 0.29 | – | – |
| FTDFNATSALFWEQHDLVYGDWTS [CLPTM1] | 2.29 ± 0.67 | 2.53 ± 0.27 | – | – |
| ETLSITNCRLSEGDVMHLSQSPSV [PRAME] | 3.2 ± 0.66 | 3.22 ± 0.77 | – | – |
| REPQEDSQKDLENDPSVNSQAQET [TOR1AIP2] | 5.68 ± 0.15 | 5.61 ± 0.2 | – | – |
| QTDHIKGIRQITSDDFCTFQMVLE [GFOD1] | 2.69 ± 0.28 | 2.8 ± 0.25 | – | – |
| EYVEKETQEKKRLSRTNEELLWKL [MTUS2] | 4.04 ± 0.25 | 4.17 ± 0.22 | – | – |
| VLSILHATLPGIFMLLLIFFAFLH [SOAT2] | 2.87 ± 0.32 | 3.17 ± 0.41 | – | – |
| QKEQQERLREAAALGDIREVQKLV [ANKRD40] | 4.67 ± 0.25 | 4.74 ± 0.25 | – | – |
| SPDSSMLCSVGASKAVFLWNMDKY [WSB1] | 2.35 ± 0.42 | 2.35 ± 0.26 | – | – |
| AEEAGLKNNDLVVAVNGESVETLD [PDZK1] | 5.49 ± 0.2 | 5.51 ± 0.26 | – | – |
| EDSLGCLTADTKEVTASQEARGLR [IRX6] | 5.34 ± 0.25 | 5.3 ± 0.27 | – | – |

| Sequence | protein stability index [1] | protein stability index [2] | protein stability index [3] | protein stability index [4] |
| --- | --- | --- | --- | --- |
| GQGLKSYMTKPSKSLLPHLKTGNS [RTP4] | 3.62 ± 0.16 | 3.63 ± 0.25 | – | – |
| QHYQQYMQQLYQVQLAQQQAALQK [ACBD3] | 2.23 ± 0.23 | 2.21 ± 0.23 | – | – |
| KKPPVTFAEKGELRKSIFSESRKP [TRIM29] | 4.13 ± 0.23 | 4.19 ± 0.19 | – | – |
| KVWSLTGQVAEDRFPESHLPIQTP [TLE6] | 3.58 ± 0.21 | 3.47 ± 0.39 | – | – |
| SFGPQPISRLEQCGINANDVKKLE [RAD51] | 4.27 ± 0.18 | 4.37 ± 0.14 | – | – |
| MAEGDNRSTNLLAAETASLEEQLQ [ARL6IP1] | 5.37 ± 0.31 | 5.43 ± 0.17 | – | – |
| LQIDNARLAADDFRTKFETEQALR [KRT17] | 4.03 ± 0.24 | 4.27 ± 0.3 | – | – |
| LRRFVVRTMCAVLGLVARQEDSGL [AUP1] | 2.17 ± 0.71 | 1.91 ± 0.095 | – | – |
| KREREVDEDSEPEREVRAKNGRVD [USP39] | 5.46 ± 0.081 | 5.69 ± 0.12 | – | – |
| MDEAVGDLKQALPCVAESPTVHVE [TRIP13] | 5.18 ± 0.13 | 5.01 ± 0.19 | – | – |
| SLFAFKSFRENWQRAWVRALNEQA [C2CD2L] | 2.15 ± 0.08 | 2.1 ± 0.23 | – | – |
| LKPHLEGAAFRDHQLLEPIRDFEA [TRIM29] | 3.88 ± 0.31 | 4.26 ± 0.25 | – | – |
| MLEDGPHNANRGQRLLAFSRGRA [CCDC70] | – | – | 2.99 ± 0.63 | 2.77 ± 0.41 |
| DEGFIKEEERPLPEKEYQRQVWLL [KCNA1] | 3.8 ± 0.28 | 3.73 ± 0.24 | – | – |
| YLKNLPLLSKYCGYREDNIPQLED [TPH1] | 2.57 ± 0.09 | 2.77 ± 0.2 | – | – |
| RRILDELTLCRSDLEAQMESLKEE [KRT33B] | 4.56 ± 0.14 | 4.66 ± 0.11 | – | – |
| ALPSVMRFCCCVAVIYLGYCFCGW [MCOLN1] | 2.76 ± 0.59 | 2.83 ± 0.31 | – | – |
| SALTLACYKGHLEMVRFLLEAGAD [ANKRD17] | 3.08 ± 0.31 | 2.69 ± 0.24 | – | – |
| SSTSYRRTFGPPPSLSPGAFSYSS [PRPH] | 3 ± 0.28 | 3.21 ± 0.3 | – | – |
| LREENKALREENRMLSKENKILQV [CBY2] | 4.75 ± 0.12 | 4.69 ± 0.15 | – | – |

From the supplement of paper PMC10567573
